Measured values from paper PMC3285688, “Active Site Mutations Change the Cleavage Specificity of Neprilysin” (PLoS ONE, 2012).
Positions count from the first letter of the chain named. In names and notes the source's numbering stands.

B1: NEP^F563M: neprilysin active site mutant, Phe563 to methionine (protein, UniProt P08473 2-750, looked up, variant F563M)
Neprilysin: GKSESQMDITDINTPKPKKKQRWTPLEISLSVLVLLLTIIAVTMIALYATYDDGICKSSDCIKSAARLIQNMDATTEPCTDFFKYACGGWLKRNVIPETSSRYGNFDILRDELEVVLKDVLQEPKTEDIVAVQKAKALYRSCINESAIDSRGGEPLLKLLPDIYGWPVATENWEQKYGASWTAEKAIAQLNSKYGKKVLINLFVGTDDKNSVNHVIHIDQPRLGLPSRDYYECTGIYKEACTAYVDFMISVARLIRQEERLPIDENQLALEMNKVMELEKEIANATAKPEDRNDPMLLYNKMTLAQIQNNFSLEINGKPFSWLNFTNEIMSTVNISITNEEDVVVYAPEYLTKLKPILTKYSARDLQNLMSWRFIMDLVSSLSRTYKESRNAFRKALYGTTSETATWRRCANYVNGNMENAVGRLYVEAAFAGESKHVVEDLIAQIREVFIQTLDDLTWMDAETKKRAEEKALAIKERIGYPDDIVSNDNKLNNEYLELNYKEDEYFENIIQNLKFSQSKQLKKLREKVDKDEWISGAAVVNAFYSSGRNQIVFPAGILQPPMFSAQQSNSLNYGGIGMVIGHEITHGFDDNGRNFNKDGDLVDWWTQQSASNFKEQSQCMVYQYGNFSWDLAGGQHLNGINTLGENIADNGGLGQAYRAYQNYIKKNGEEKLLPGLDLNHKQLFFLNFAQVWCGTYRPEYAVNSIKTDVHSPGNFRIIGTLQNSAEFSEAFHCRKNSYMNPEKKCRVW
B2: NEP^F563I: neprilysin active site mutant, Phe563 to isoleucine (protein, UniProt P08473 2-750, looked up, variant F563I)
Neprilysin: B1 Neprilysin with M563I

Tests used:
Assay type in all cases: biochemical
Aß1–40 = assay: Rate of Aß1–40 hydrolysis (HPLC); conditions: 24 µM Aß1–40, 37°C, 20 mM MES buffer, pH 6.5; disappearance of substrate by HPLC; at least triplicate
Protocol: (§1) Cleavage of physiological peptides was measured via reverse phase high performance liquid chromatography (HPLC) following incubation of the purified NEP or its mutants with 15 µM insulin B chain (Sigma Aldrich), 24 µM Aß1–40 (Anaspec), or 64 µM leu-ENK (Sigma) in 100 µL of 20 mM MES, pH 6.5, at 37°C. Reactions were run in triplicate. HPLC was carried out in a Vydac C4 column using a linear gradient from 0.1% trifluoroacetic acid (TFA) in 95% water, 5% acetonitrile to 0.1% TFA in 50% acetonitrile/water at a flow rate of 1 mL/min. Peptides and hydrolysis products were detected at 214 nm and quantified by measuring peak areas. Peptides obtained from HPLC were analyzed on an Applied Biosystems 4800 MALDI TOF/TOF Proteomics Analyzer at the University of Kentucky Proteomics core. This facility is supported in part by grant P20RR020171 from the NIH/NCRR.
(§2) Statistical analysis comparing wild-type NEP and its mutants was performed with Prism 4 software using a two-tailed paired t-test with a 95% confidence interval.

[1] = Hydrolysis of synthetic substrate Glut-Ala-Ala-Phe-MNA by NEP and mutants (fluorogenic); conditions: 37°C, 20 mM MES buffer, pH 6.5; for Specific Activity (Glut-Ala-Ala-Phe-MNA cleavage): 100 µM Glut-Ala-Ala-Phe-MNA, fluorescence ex 340 nm, em 425 nm; for Km: Glut-Ala-Ala-Phe-MNA 20 to 500 µM, Michaelis-Menten fit
Protocol: Reactions of 400 µl contained 100 µM Glut-Ala-Ala-Phe-MNA, 1 µg of aminopeptidase and 15 to 100 ng of NEP or mutant NEP depending on their activity in 20 mM MES buffer, pH 6.5. Activity was monitored with a Spectra Max Gemini XS plate reader using an excitation wavelength of 340 nm and an emission wavelength of 425 nm.
(§3) Kinetic constants for NEP and its mutants were obtained using the assay conditions noted above, but with Glut-Ala-Ala-Phe-MNA varied from 20 to 500 µM. Typically 12 data points were obtained. The data were fit to the Michaelis-Menten equation using Prism4 software. The Ki for insulin B chain was obtained by measuring the rate of Glut-Ala-Ala-Phe-MNA hydrolysis in the presence of varying concentrations of insulin B chain from 1 to 40 µM. Data were fit to a Dixon plot (1/rate versus [insulin B chain]) using Prism4 software and the ID50 obtained as the –x intercept, where ID50 corresponds to the concentration of insulin producing 50% inhibition. The actual Ki was obtained from the equation: ID50 = Ki (1+ [Glut-Ala-Ala-Phe-MNA]/KmGlut-Ala-Ala-Phe-MNA), [33].

leu-ENK [2] = assay: Dual substrate assay: leu-ENK hydrolysis in presence of insulin B chain; conditions: 15 µM insulin B chain and 64 µM leu-ENK together, 37°C, 20 mM MES buffer, pH 6.5; for leu-ENK hydrolysis, activity relative to the uninhibited value: numbers in parenthesis
Protocol: (§4) The rate of cleavage of a substrate mixture is determined by both the kcat for that substrate as well by the affinity for the substrate. […] This is expected, given that each peptide acts as a competitive inhibitor of the other. […] That is the ratio for leu-ENK/insulin B chain cleavage is 3 for NEP^S546E compared to 6 for wild-type NEP.
as §1

[3] = tested on: leu-ENK and insulin B chain; assay: Dual substrate assay: substrate preference leu-ENK versus insulin B chain; conditions: for Substrate preference leu-ENK/insulin B chain (in words): dual substrate assay, versus wild-type; for Ratio leu-ENK insulin B chain: ratio of rates, 15 µM insulin B chain and 64 µM leu-ENK together
Protocol: as §4, §1

insulin B chain [4] = assay: Rate of insulin B chain hydrolysis (HPLC); conditions: 15 µM insulin B chain, 37°C, 20 mM MES buffer, pH 6.5; disappearance of substrate by HPLC; at least triplicate
Protocol: as §1, §2

insulin B chain [5] = assay: Insulin B chain as alternate substrate (competitive) inhibitor of Glut-Ala-Ala-Phe-MNA hydrolysis (Dixon plot); conditions: insulin B chain 1 to 40 µM as competitive inhibitor of Glut-Ala-Ala-Phe-MNA hydrolysis by the enzyme form, 37°C, 20 mM MES, pH 6.5, ID50 converted to Ki
Protocol: as §3

leu-ENK [6] = assay: Rate of leu-ENK hydrolysis (HPLC); conditions: 64 µM leu-ENK, 37°C, 20 mM MES buffer, pH 6.5; disappearance of substrate by HPLC; at least triplicate
Protocol: as §1, §2

insulin B chain [7] = assay: Dual substrate assay: insulin B chain hydrolysis in presence of leu-ENK; conditions: 15 µM insulin B chain and 64 µM leu-ENK together, 37°C, 20 mM MES buffer, pH 6.5; for Insulin B Chain hydrolysis, activity relative to the uninhibited value: numbers in parenthesis
Protocol: as §4, §1

Row | Ki (insulin B chain [5]) [nM] | Molecule | Rate of hydrolysis of Aß1–40 (Aß1–40) [fmol/min/ng] | Specific Activity (Glut-Ala-Ala-Phe-MNA cleavage) [1] [pmol/min/ng] | Km [1] [µM] | leu-ENK hydrolysis rate, dual substrate assay (leu-ENK [2]) [pmol/min/ng] | leu-ENK hydrolysis, activity relative to the uninhibited value (leu-ENK [2]) | Substrate preference leu-ENK/insulin B chain (in words) [3] | Ratio leu-ENK insulin B chain [3] | Rate of hydrolysis of Insulin B Chain (insulin B chain [4]) [pmol/min/ng] | Rate of hydrolysis of leu-ENK (leu-ENK [6]) [pmol/min/ng] | Insulin B Chain hydrolysis rate, dual substrate assay (insulin B chain [7]) [pmol/min/ng] | Insulin B Chain hydrolysis, activity relative to the uninhibited value (insulin B chain [7])
1 | 1200 ± 100 | B1 | 85 ± 3 | 19.2 ± 0.4 | 87 ± 8 | 0.69 ± 0.11 | 0.57 | no change in overall substrate preference | 6.3 | 0.21 ± 0.01 | 1.21 ± 0.22 | 0.11 ± 0.02 | 0.52
2 | 2500 ± 900 | B2 | 43 ± 1 | 17.7 ± 0.6 | 83 ± 4 | 0.62 ± 0.03 | 0.58 | shift in substrate preference toward leu-ENK | 31.0 | 0.13 ± 0.02 | 1.06 ± 0.17 | 0.02 ± 0.01 | 0.15
